# Reference: patent US6342348 (GENETECH, dated 2002)
# T1: recombinant soluble rat GDNFRα (rat, UniProt Q62997 25-427, limits assumed)
# T1 construct: also called rGDNFRα; GFR-alpha-1
# T1 sequence (looked up): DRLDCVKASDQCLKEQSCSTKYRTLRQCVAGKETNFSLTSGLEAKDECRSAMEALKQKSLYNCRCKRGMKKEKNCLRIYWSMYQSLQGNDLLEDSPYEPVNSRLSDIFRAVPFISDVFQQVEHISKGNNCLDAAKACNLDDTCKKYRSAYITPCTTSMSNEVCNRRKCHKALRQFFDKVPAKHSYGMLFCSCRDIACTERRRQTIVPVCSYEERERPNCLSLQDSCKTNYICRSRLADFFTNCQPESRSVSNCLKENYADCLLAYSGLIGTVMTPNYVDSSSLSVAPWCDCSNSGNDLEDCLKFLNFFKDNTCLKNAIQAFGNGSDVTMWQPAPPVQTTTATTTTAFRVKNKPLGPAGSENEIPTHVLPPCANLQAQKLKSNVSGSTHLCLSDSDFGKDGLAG
# B1: rat GDNF (ligand, UniProt Q07731 78-211, looked up)
# chain: SPDKQAAALPRRERNRQAAAASPENSRGKGRRGQRGKNRGCVLTAIHLNVTDLGLGYETKEELIFRYCSGSCEAAETMYDKILKNLSRSRRLTSDKVGQACCRPVAFDDDLSFLDDSLVYHILRKHSAKRCGCI
# modifications: ^125I label (iodinated either on tyrosine by the Bolton Hunter method or on lysine using lactoperoxidase)
# notes: also called rGDNF; RGDNF
# Target: T1, recombinant soluble rat GDNFRα
# Assay: equilibrium competition binding of ^125I-rGDNF to recombinant soluble rGDNFRα, Scatchard
binder,measurement,value
B1,Kd,3 pM
